Data: the supplement of paper PMC7877785
± gives the uncertainty stated by the source.

Assay: self-splicing fitness, log relative to wild type (ln ratio); higher = more splicing; Tetrahymena group I intron in knt gene, E. coli kanamycin selection, DiMSum; sequences stand for … in CUCUCU…GGAGGGAAAAGUUAUCAGGCAUGCACCUGGUAGCUAGUCUUUAAACCAAUAGAUUGCAUCGGUUUAAAAGGCAAGACCGUCAAAUUGCGGGAAAGGGGUCAACAGCCGUUCAGUACCAAGUCUCAGGGGAAACUUUGAGAUGGCCUUGCAAAGGGUAUGGUAAUAAGCUGACGGACAUGGUCCUAACCACGCAGCCAAGUCCUAAGUCAACAGAUCUUCUGUUGAUAUGGAUGCAGUUCACAGACUAAAUGUCGGUCGGGGAAGAUGUAUUCUUCUCAUAAGAUAUAGUCGGACCUCUCCUUAAUGGGAGCUAGCGGAUGAAGUGAUGCAACACUGGAGCCGCUGGGAACUAAUUUGUAUGCGAAAGUAUAUUGAUUAGUUUUGGAGUACUCGUGGUCG
In short: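 Six replicate transformations of E. coli BL21(DE3) with a pET-22b(+) library were grown overnight at 37°C or 30°C. The library randomised all eight P1ex-region intron nucleotides, the intron lying in the knt kanamycin-resistance gene, and plates were LB agar with or without 25 μg/mL kanamycin plus 100 μg/mL carbenicillin, 50 μM IPTG and 0.2% rhamnose. Pooled colonies were amplicon-sequenced on an Illumina HiSeq 2500, and fitness is the DiMSum error-weighted combination of wild-type-normalised replicate fold changes, kanamycin versus none.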

Sequence | self-splicing fitness (ln) (30 °C) | self-splicing fitness (ln) (37 °C)
CGUGAGCAAUAUUACGGUGC | -4.97 ± 0.41 | -3.39 ± 0.17
AACCAGCAAUAUUACGUUCA | -0.752 ± 0.06 | -0.495 ± 0.065
CUCCAGCAAUAUUACGGCGU | -3.61 ± 0.17 | -3.4 ± 0.23
CCAAAGCAAUAUUACGCCUG | -0.536 ± 0.055 | -0.707 ± 0.07
ACUAAGCAAUAUUACGCGCG | -0.732 ± 0.096 | -0.0128 ± 0.13
ACUCAGCAAUAUUACGACAA | -0.977 ± 0.27 | -1.18 ± 0.24
UAACAGCAAUAUUACGGUAA | -2.07 ± 0.095 | -1.22 ± 0.081
UUCCAGCAAUAUUACGGAUA | -0.966 ± 0.092 | -0.56 ± 0.098
UGGCAGCAAUAUUACGUGCU | -2.71 ± 0.14 | -1.79 ± 0.17
UAACAGCAAUAUUACGACUC | -0.882 ± 0.084 | -0.517 ± 0.11
CUCUAGCAAUAUUACGAUGU | -3.53 ± 0.22 | -2.92 ± 0.25
CAUAAGCAAUAUUACGGAAG | -1.43 ± 0.075 | -0.578 ± 0.096
CGCAAGCAAUAUUACGAAAG | -0.888 ± 0.071 | -1.12 ± 0.093
GUCCAGCAAUAUUACGAAGC | -0.345 ± 0.072 | -0.167 ± 0.085
UUCUAGCAAUAUUACGAUGU | -3.53 ± 0.42 | -1.66 ± 0.2
UGUGAGCAAUAUUACGACCG | -1.22 ± 0.19 | -0.38 ± 0.21
GCGUAGCAAUAUUACGACCG | -1.5 ± 0.16 | -0.0305 ± 0.2
AGGGAGCAAUAUUACGAGUG | -3.39 ± 0.36 | -2.37 ± 0.3
ACCGAGCAAUAUUACGAAAC | – | -2.95 ± 0.37
GAGAAGCAAUAUUACGUUAU | -3.33 ± 0.19 | -2.47 ± 0.16
GGCCAGCAAUAUUACGUGAG | -2.13 ± 0.08 | -1.49 ± 0.092
GACGAGCAAUAUUACGCAUC | – | -2.06 ± 0.36
AUAUAGCAAUAUUACGUUCU | -1.47 ± 0.18 | -0.302 ± 0.21
UACUAGCAAUAUUACGAGGU | -3.47 ± 0.42 | -2 ± 0.29
UGACAGCAAUAUUACGUUAG | -1.01 ± 0.066 | -0.987 ± 0.089
GCCGAGCAAUAUUACGUACG | -2.46 ± 0.43 | -1.56 ± 0.26

Sequence | self-splicing fitness (ln) (30 °C) | self-splicing fitness (ln) (37 °C)
CCCGAGCAAUAUUACGACCU | -2.45 ± 0.31 | -2.19 ± 0.32
GAGCAGCAAUAUUACGCAGU | -3.57 ± 0.2 | -1.4 ± 0.17
CCAAAGCAAUAUUACGAUCG | 0.0481 ± 0.058 | -0.183 ± 0.075
AUUAAGCAAUAUUACGGUAA | -1.64 ± 0.12 | -1.33 ± 0.11
CCAAAGCAAUAUUACGCGUA | -4.41 ± 0.34 | -3.75 ± 0.32
UUUUAGCAAUAUUACGUCUG | -0.654 ± 0.14 | -0.153 ± 0.16
UUUGAGCAAUAUUACGCGUA | – | 0.0632 ± 0.24
UAGUAGCAAUAUUACGAUAG | -1.95 ± 0.35 | –
AAUAAGCAAUAUUACGUCAG | -3.34 ± 0.18 | -1.82 ± 0.13
CGUCAGCAAUAUUACGGUCC | -1.34 ± 0.079 | -0.173 ± 0.1
CCCGAGCAAUAUUACGGGGU | -2.92 ± 0.16 | -2.93 ± 0.17
UCAGAGCAAUAUUACGGAUU | -3.58 ± 0.19 | -2.68 ± 0.23
UUUAAGCAAUAUUACGAAGA | -2.77 ± 0.27 | -1.33 ± 0.21
GUGAAGCAAUAUUACGUAUC | -1.08 ± 0.059 | 0.384 ± 0.068
CAGAAGCAAUAUUACGAAUC | – | -1.93 ± 0.38
ACCCAGCAAUAUUACGGUCG | -3.85 ± 0.14 | -1.75 ± 0.095
AUUAAGCAAUAUUACGAUUA | -0.777 ± 0.13 | -0.308 ± 0.13
AGAUAGCAAUAUUACGAGUG | -2.72 ± 0.15 | -1.22 ± 0.14
UGUGAGCAAUAUUACGAGUA | -2.16 ± 0.21 | -2.07 ± 0.29
UUGUAGCAAUAUUACGGUGG | -1.75 ± 0.12 | -1.28 ± 0.17
AUCGAGCAAUAUUACGGAGU | -3.83 ± 0.31 | -2.42 ± 0.23
UGAUAGCAAUAUUACGUUGA | -3.42 ± 0.19 | -1.91 ± 0.14
GCUGAGCAAUAUUACGUUAG | -2.86 ± 0.12 | -1.74 ± 0.17
AUGAAGCAAUAUUACGUUCG | 0.356 ± 0.086 | 0.464 ± 0.12
AACAAGCAAUAUUACGAACC | -1.27 ± 0.12 | 0.0146 ± 0.19
CAAUAGCAAUAUUACGCUAG | -2.49 ± 0.15 | -1.86 ± 0.19

Sequence | self-splicing fitness (ln) (30 °C) | self-splicing fitness (ln) (37 °C)
CGGCAGCAAUAUUACGAUAU | -4.27 ± 0.23 | -1.51 ± 0.098
UAUGAGCAAUAUUACGCCAG | -2.96 ± 0.4 | -1.21 ± 0.38
AAGUAGCAAUAUUACGCUUC | – | -1.41 ± 0.2
CAGAAGCAAUAUUACGGUCA | -1.54 ± 0.13 | -1.15 ± 0.097
UGCUAGCAAUAUUACGUGCU | -2.31 ± 0.16 | -2 ± 0.17
GUACAGCAAUAUUACGAAUG | -3.54 ± 0.25 | -0.988 ± 0.18
CCUCAGCAAUAUUACGUGGC | -3.94 ± 0.22 | -3.01 ± 0.24
CGAAAGCAAUAUUACGCAGA | -4.25 ± 0.42 | -0.12 ± 0.17
AUCCAGCAAUAUUACGCCGC | -4.25 ± 0.46 | -2.58 ± 0.38
AAACAGCAAUAUUACGGGCA | -1.86 ± 0.1 | -1.24 ± 0.1
UAGAAGCAAUAUUACGUACU | -1.22 ± 0.1 | -0.355 ± 0.14
AGACAGCAAUAUUACGGUUG | -1.85 ± 0.088 | -1.87 ± 0.13
AAUGAGCAAUAUUACGAUGC | -2.44 ± 0.21 | –
GCGCAGCAAUAUUACGACGG | -1.13 ± 0.14 | -0.906 ± 0.17
AUAUAGCAAUAUUACGGACA | -1.48 ± 0.22 | -1.2 ± 0.23
GCUCAGCAAUAUUACGAACU | -0.913 ± 0.068 | -0.48 ± 0.079
CUAAAGCAAUAUUACGUAAA | -2.81 ± 0.14 | -3.36 ± 0.26
UGUCAGCAAUAUUACGGUUG | -0.893 ± 0.049 | 0.317 ± 0.072
CAACAGCAAUAUUACGGCCG | 0.255 ± 0.072 | 0.563 ± 0.1
CGAUAGCAAUAUUACGCGAA | -2.95 ± 0.21 | -1.92 ± 0.21
AUUCAGCAAUAUUACGCCAU | -1.46 ± 0.1 | -1.09 ± 0.1
GGAUAGCAAUAUUACGGAUC | -0.869 ± 0.084 | -0.269 ± 0.11
UCAGAGCAAUAUUACGUGUC | -4.13 ± 0.31 | -2.63 ± 0.23
AAUCAGCAAUAUUACGUCGA | -0.548 ± 0.095 | 0.0423 ± 0.1
CUCUAGCAAUAUUACGUAGC | -3.51 ± 0.37 | -3.53 ± 0.46
